# How the values were obtained:
# [1] = target: T1, amphyphisin SH3 (AMPH_HUMAN), P49418; assay: SPOT array
# T1 chain: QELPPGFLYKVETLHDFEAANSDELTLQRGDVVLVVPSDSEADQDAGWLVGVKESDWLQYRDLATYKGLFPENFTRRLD
# [2] = target: endophilin SH3 (SH3G2_HUMAN), Q99962; assay: SPOT array
Binder,"normalised SPOT signal, Boehringer light units (BLU); mean over the file's lines of this peptide [1]","normalised SPOT signal, Boehringer light units (BLU); mean over the file's lines of this peptide [2]"
NVPIPERPPPVPPP [Q96BJ8 361-375],37.6,84
NSSHIKRPMNAFMV [Q9UN79 402-415],37.1,176
NSPTLERPGRKRKW [Q9H247 116-129],497,81.5
PAASPRRPAPRTGP [Q96S08 21-34],21.1,48.9
NSSSFKRPDGEMNI [O00463 504-517],7.2,39.5
PAALLRRPGLGRLV [P30049 3-16],4.9,81.5
PAPRIKRPRLQVVK [Q9BR83 136-149],70.5,27.2
PAALLYRPVRQYVY [Q9NZB2 597-610],379,430
ARLYLRRPAADGAE [Q14181 572-585],43,91.8
NVSSFRRPRRSSDK [Q9P2Y5 686-699],2350,105
NTAKPTRPPSESSS [Q9Y2E7 460-474],48.6,141
PASALPRPPRLSGS [Q9NQ45 25-38],4470,92.9
ARPELRRPGVQGIP [Q9Y358 352-365],25.7,73.8
PAARPRRPPTTLPP [Q9HCM5 24-37],109,7270
NSRNPRRPPPSSVN [Q96T16 198-211],78.8,464
PASAFDRPARTRGQ [Q9H7P7 809-822],2010,98.4
PAAPPKRPAVASAR [P27816 749-762],64.4,2200
PAAPPKKPPRPGAP [Q05397 868-882],2460,792
NTFHILRPTKAPGF [Q9Y2L0 734-747],194,256
PAGELSRPKKDMSD [P78325 461-474],105,196
PSKEILRPRRTLQK [P01031 668-681],1040,181

Binder,"normalised SPOT signal, Boehringer light units (BLU); mean over the file's lines of this peptide [1]","normalised SPOT signal, Boehringer light units (BLU); mean over the file's lines of this peptide [2]"
PAPPPVKPPPSPVN [Q8TF74 224-238],43.7,182
NVLVPSRPPRNPYD [BAC03435 232-246],4650,2920
PSAKPRRPQDKSQG [Q9P2D1 825-838],38.3,78.4
PAPRLRRPGRVRPH [Q8WZ58 338-351],71.5,71.1
ARLPPPRPQRPAET [Q9NQE0 226-239],678,3150
ARNQLRRPQYRPQY [P16989 219-232],13,27.2
NYKNIKRPPGDIMF [Q9Y310 97-110],19,36
PAAPPRRPPQSASS [Q02080 268-282],3320,1450
PAAAPRRPFSWEDV [O95696 687-700],28,50.4
NSMGIKRPAPQPAS [O94830 308-321],24.3,165
PAHPFRRPKLSGRS [Q9ULT6 397-410],49.5,64.8
PAQLPRRPAQRPGE [O00456 575-588],29.4,28.3
PALSPTRPPKKPLD [O60593 320-334],599,1720
PAVILRRPNQSQPL [Q92542 409-422],16.5,108
PARPPAKPPEDEPD [Q14184 101-115],56.7,45.8
NSSRPGRPPKRSLG [Q96NX9 174-188],4020,18800
PATAPARPLRLPSG [Q9UPV8 1233-1246],11300,7710
PAPSLPRPERKSIV [Q99941 295-308],152,143
PAPGLRRPLSPPAA [Q9UK39 24-37],57.1,104
PAVPPARPPTAQEV [Q9ULT2 697-711],92,509
PAVPPGRPRRGSLP [Q9UQ51 6-19],2070,7480

# From publication PMC314469, “Protein Interaction Networks by Proteome Peptide Scanning” (PLoS Biology, 2004)
